{
  "source": "the DeepSol protein solubility set",
  "data": [
    {"assay": "soluble on expression in E. coli; label from the status in PepcDB or PDB records", "values": [
      {"sequence": "MKDFVKGRKIYTRTYNKCDPSLVVVERAKRRLGETKYNPFYNNCEHFARYCKVGIPISDQVENYKSLVGNSGIDASDALLNNGKSIVDTTQNLMKTTLDKISNFWKNDNDDDDGFFEYYLEHHHHHH", "soluble on expression in E. coli": "not soluble"},
      {"sequence": "MSLQDDDFSLFKSEMRGVKRISVDRADTGKPRNDRQQLKQRQLNASVRNDEIRVDGLSDQFVIDVGPEDELSWARDGVQESQLRKLKQGLVPFDGSLDLHGMSVEKARQTLWDFLAEATRLEIRCVRVTHGKAARKDGRSPLVKSHVNTWLRQHPQVLGFTSCLPRHGGTGSVYVMLRRTMLEGRDEEGHHHHHH", "soluble on expression in E. coli": "soluble"},
      {"sequence": "MNEEKQQELLISVIITNYNYDQFIDQAIESVLSQTYYNFELIIVDDGSTDNSRDVISSYTDSRIKALVKNNGGQASAFNAGFEQANGEIICFLDSDDWWKPEKLETIIRWHYFINKDYAIFQHVLDVWYEGKTRPYKHILPSGDCFAEMKKVKKLDFFVPTSGLSFPKKILDRIFPIPIKFIIAADSYIMRTACVFNMVYSIPKSLGFYRQHDNTVFLNPDFDLQPFLKEILIPELNQFYQKYRINYQIEISDYNFNERKKNKKQKIFEYLKKVFFLEHHHHHH", "soluble on expression in E. coli": "not soluble"},
      {"sequence": "MQREDDPDAYDVIWASNGTLYFTPGFKYNTPPYPANQRVLATTDNIALTNYLRQEYNKLKESEGTPTLNDIINGFGFCYNDSSNGAGLDGTYLTVSGMLDNKYRLQLLGQYNGSNWLAYRTRNGDEQSWNPWHKVLTDNINAAISARHQYTSSSYPQIYGNGILQLGGDSRNEYGVVLRSNGTDEANAFRPSVNAGTTGHLYLGVANQKWRAVFAQNGTIQTSDRNAKHDITDLDPEKITAFIMGLKPSSYVFNDADSGRTHWGLISQDIEELFPQLGMTSMDFAGFIKSPKTEDYYEDVPETVTDEETGEEKTVTRKELKTRTVEGEYIYSLRYDEFIAPLICMVQRQQRQIEYLERRLSASESKEEAKLEHHHHHH", "soluble on expression in E. coli": "soluble"},
      {"sequence": "MARAVHRSGLVALGIATALMASCAFAAKDVVVAVGSNFTTLDPYDANDTLSQAVAKSFYQGLFGLDKEMKLKNVLAESYTVSDDGITYTVKLREGIKFQDGTDFNAAAVKANLDRASDPANHLKRYNLYKNIAKTEAIDPTTVKITLKQPFSAFINILAHPATAMISPAALEKYGKEIGFYPVGTGPYELDTWNQTDFVKVKKFAGYWQPGLPKLDSITWRPVADNNTRAAMLQTGEAQFAFPIPYEQATLLEKNKNIELMASPSIMQRYISMNVTQKPFDNPKVREALNYAINRPALVKVAFAGYATPATGVVPPSIAYAQSYKPWPYDPVKARELLKEAGYPNGFSTTLWSSHNHSTAQKVLQFTQQQLAQVGIKAQVTAMDAGQRAAEVEGKGQKESGVRMFYTGWSASTGEADWALSPLFASQNWPPTLFNTAFYSNKQVDDFLAQALKTNDPAEKTRLYKAAQDIIWQESPWIPLVVEKLVSAHSKNLTGFWIMPDTGFSFEDADLQ", "soluble on expression in E. coli": "soluble"},
      {"sequence": "MSEMGKYKPPAERKYGKGVQSCQRCGSKDSVIQKYGIYLCRQCFREVAYELGFRKYW", "soluble on expression in E. coli": "soluble"},
      {"sequence": "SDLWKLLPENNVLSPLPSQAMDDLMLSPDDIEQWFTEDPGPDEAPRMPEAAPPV", "soluble on expression in E. coli": "soluble"},
      {"sequence": "MAHHHHHHMCLLDVDEYKHTDTPEPRGEILLRGPFLFKGYYMQEKLTREALDEDGWFHTGDVGSITTHGRLRIIGRVKALAKNVLGEYIALEALESMYAHNALCMPNGVCVLVHPARSYICALVLTDETKAMMFAKEHGIEGSYPDILRDPAFQRKATESMQATARKADRQKFECVRHVRVVGDEWTPENEILTAAGKLKRREIDKRYADVIQLLFVEEC", "soluble on expression in E. coli": "not soluble"},
      {"sequence": "MPVIPKSGRLAAVGVLGRIVDVLMRLSLLIRGAVPGGVAAAAATRYRDRIDTGTTATYYGRVVREGGYVVLQYWFFYAMNDWRSVYGGVNDHEADWEKVTVYLVEEENGEYRPVWVGASSHEYLGDDLRRRWDDPELHRDGNHPIIYVGAGSHSHQMLPGDYLIQVDPAFLRGVLRAWRRFTARFLPSSSRLRGIGVPFVDYARGDGVRVGPGGERTWTPVLIDDTTPWVRGYRGLWGRNTRDWFDGERAPSGPRYERLEHHHHHH", "soluble on expression in E. coli": "soluble"},
      {"sequence": "MGSDKIHHHHHHMIYNDRLGEVMDLNTLIKIIEKVGRIEIEDIKITADELIINIPSAPPIVIPQTPSIKEKLAEEGIIEIKDVPELDWEPPVEKYPGYIREVQFGKPKSEGGRGKVVKIGGQRALYRFEEPQPNPPVVTFDIFDIPMPGLPKPIRQFFQDVMEDPCEWAKKCVKEFGADMITIHHISTDPKIKDKSPKEAAKLMEDLLQAVDVPFVIGGSGNPQKDPLVLEACAEVAEGDRCLLASANLELDYKKIVDAAMKYDHNVLAWSIMDPNMARDLNRKLVEAGLDPNRIVMDPTTCALGYGIEFSINAMVRLRLNGLKGDELVNMPMSSGTTNAIGAREAWMNNPEWGPREYRLPLWEITTGITMMMCGVDLFMMLNPISVKTLKEIGKTLTTKPGEVKLNTNNYEWIVSP", "soluble on expression in E. coli": "not soluble"},
      {"sequence": "MSLDWQTLLTRERLGKPVHSNDELGRSAFHKDHDRIIFSGAFRRLGRKTQVHPVSSNDHIHTRLTHSLEVACVGRSLGMRVGEILREELPEWCDPSDLGVIVQSACLAHDIGNPPFGHSGEDAIRNWFQQAAGRGWLDEMSDAERSDFLHFEGNAQGFRVLTQLEYHQFDGGTRLTYATLGTYLKYPWTSRHAEALGYKKHKFGCYQSELPLLEQITHKLGMPQLDDERWARHPLVYLMEAADDICYGLIDLEDGLEMELLEYSEVEALLLGLVGDDLPDTYRQLGPRDSRRRKLAILRGKAIEHLTNAAARAFVDQQQALLAGQLAGDLVEHMHGPAKLCVQRAKAIAREKIFQDKRKTLHEIGAYTTLEILLNAFCGAALEQYGGHTPSFKNRRILDLLGRNAPDPQWPLYRAFLQVIDFIAGMTDSYATEMAREMTGRSSEGHHHHHH", "soluble on expression in E. coli": "soluble"},
      {"sequence": "ANGLITKIWGTAGWTFNHAVTFGYPLNPTSDDKRRYKNYFISLGDVLPCRLCRESYKKFITTGKTALTNEVLRNRHTLTKWFYDVHNAVNNKLEVDYGLSYEDVVNKYESFRAK", "soluble on expression in E. coli": "soluble"},
      {"sequence": "MELNMLYLFTASNDSAIKNLEATIEKIYPISTCLADLDADTVTKLKDNELHENVCMWGATPGSSNVDRWEKLKEGDRILAYSKGEFKFFGTIFAKTHNPDVARKI", "soluble on expression in E. coli": "not soluble"},
      {"sequence": "MGSDKIHHHHHHMSSSDNILERLLFTIHKRLVSIPIAPNLRKNVAPIVNDWPSRPEKNTRPSTTVHLPAVDYLEQALKIGETSGDREICPMIRLLAPELSWNFDYAPHPAFPYLDEKVAFTQFVGPNDLWVSSHLAIGLTLIAPETHYPAHCHPATEIYLPLAGTGSWSMGNYYYFPRKPGELIFHPSGITHATQAQEEPMLALYIWHGDICSPSEWLPDECE", "soluble on expression in E. coli": "not soluble"},
      {"sequence": "MGSDKIHHHHHHMNKTLVIGAAFVDVIVDVPKLPKTGDDIPGNLKSYVVGGSAFNVFGTLKHEKINTDLFVPVGEGNYANQIKEKMRELKIPIKLPVRGNDNGWDISFIEPGGERSFLTIQGIEQDWKTEWFKTININEYKYFYLSGYEMENENAGKVILKELQKRIPESLLLFDASPRISSISKTIIQKIMKKNVIINCNKEEANYFMPKGHSLEEKARRIYAKTESPVIVTLGSNGSYYYDGNDHIIPSEKKDKIINTIGAGDTHCGGILAGLNKDMSFKDSVILANRLSGLVVEKESGSL", "soluble on expression in E. coli": "not soluble"},
      {"sequence": "MLSIREYLEAGETTISNLLFDHYQKIGLKDDEFLFLLQLFRSQNAGDLFPDLMAIAETMGKTPDTIYKLLNQLVSRGFIRIETQQNQKGQMMDTYDLLPVFQKIQLFLQTSKEKQVVANHEDEIKQLYQGFEKEFGRPLSPIELEMIGQWLNTDHYSPELIRLALREAVLNQAYSLKYIDRILLAWERKNITTKEQVAADQKKRKDSMIQNEIEQQGQTQESLPKVTLHNWLNPEDSE", "soluble on expression in E. coli": "soluble"},
      {"sequence": "MSLKTITFFKRVLASAALVSVCGFACATNNGKQFIHNDTMEGGKLVCREIYAMNDAASGILNPVKMYKYSYDTDQQKTVKSTYAWNIFKNTWETESRTVISRYETETSVEYSVWNKEKGSFDLSKKYIYITDNNNQLIAQYAYKMNSRTNQWILEKDALTPIYENIYATTREGHHHHHH", "soluble on expression in E. coli": "soluble"}
    ]}
  ]
}
